Measured values reported in the supplement of paper PMC10567573.

Assay: protein stability index of a GFP-peptide fusion (GPS, HEK-293T) (PSI 1-6); higher = more stable
Conditions: parent: NP_006221.1; c terminus: native
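Also: lentivirally expressed fusion library, cells FACS-sorted into six equal-sized GFP/DsRed ratio bins, PSI computed from sequencing read fractions per bin weighted by bin number.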

Going from CQPISFSGFGAEDDDLGGLGLGPV [POLD2 addV] to CQPISFSGFGAEDDDLGGLGLGPN [POLD2 addN], the protein stability index falls from 3 to 1.99.

Same assay, conditions: parent: NP_015628.1; c terminus: native

Compared with EQRNSRWNTVLRAVKAKTHHLEPN [TRPA1 addN], EQRNSRWNTVLRAVKAKTHHLEPV [TRPA1 addV] is lower in protein stability index: 4.57 for the first, 4.23 for the second.

Same assay, conditions: parent: NP_116010.1; c terminus: native

First: HSLRAVSTDPPHHDHHDEFCLMPV [BEX2 addV]
Second: HSLRAVSTDPPHHDHHDEFCLMPN [BEX2 addN]
The protein stability index of the first is lower: 3.68 for the first, 4.18 for the second.

Same assay, conditions: parent: NP_002788.1; c terminus: native

First: DGWIRVSSDNVADLHEKYSGSTPV [PSMB5 addV]
Second: DGWIRVSSDNVADLHEKYSGSTPN [PSMB5 addN]
The protein stability index of the first is higher: 4.27 for the first, 4.04 for the second.

Same assay, conditions: parent: NP_009172.2; c terminus: native

Going from LPALFTDLYSQEITAEEAREALPV [SNF8 addV] to LPALFTDLYSQEITAEEAREALPN [SNF8 addN], the protein stability index rises from 3.9 to 4.75.
